According to the supplement of paper PMC9732359:
± gives the uncertainty stated by the source.

assay: protein stability index of a GFP-peptide fusion (yeast GPS) (PSI 1-4); higher = more stable; sorted into four equal gates, so the index is relative within each strain; conditions: doa10∆
In short: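 Tiled yeast protein peptides of 17 residues were each joined downstream of GFP, on plasmids that also express Cherry. The pooled library was maintained in yeast, and mid-log cultures in leucine-free medium were sorted into four equal gates on the GFP/Cherry ratio. Plasmids from every gate were amplified by PCR and sequenced on Illumina, with barcodes linking reads to strains. The protein stability index of a peptide is its gate-number-weighted read frequency summed over the gates.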

Sequence | protein stability index
MGKGTPSFGKRHNKSHT [RPL37A] | 3.24 ± 0.089
MGQIATFIYFAYFLIIV [COB] | 1.63 ± 0.053
MGVIKKKRSHHGKASRQ [SNF6] | 3.15 ± 0.14
MGVRTFSQKEMAFNLLG [FAS2] | 2.1 ± 0.078
MHSYFIFKDLVTVFLFM [COB] | 1.47 ± 0.04
MINDENYIINDIKKNNK [SRB8] | 3.15 ± 0.078
MINGRKLIKFETRNEDD [FAS1] | 2.9 ± 0.071
MINRLLLCALDRKDQDD [RPB2] | 1.86 ± 0.16
MIVYYKDAISFIKEIHK [YCS4] | 2.19 ± 0.092
MKLVNFLKKLRNEQVTI [SMD1] | 1.87 ± 0.17
MKPSEILSLIEEAAGTK [SMC2] | 3.24 ± 0.1
MKQLKFFKPLDYITEAV [SNU114] | 2.12 ± 0.043
MKRMVAQWERSKLSQEF [SNF12] | 3.23 ± 0.22
MKTPSLTVYLEPGHAAD [RPO21] | 3.01 ± 0.092
MKVEELIIDGFKSYATR [SMC2] | 3.45 ± 0.19
MKVKADRDESSPYAAML [RPS14A] | 3.37 ± 0.1
MLSAHNIIESIANFSRA [YJR042W/NUP85] | 2.31 ± 0.074
MNFISKEEFIMMVNISV [PCI8] | 1.41 ± 0.059
MNFNTPQQNKTPFSFGT [YJL041W/NSP1] | 3.15 ± 0.057
MNNETSGKETASAPLCS [DLS1] | 3.01 ± 0.067
MNQSSIDRGLFRSLFFR [RPB2] | 3.16 ± 0.16
MPDEFNTLYTAIITDDL [SRP72] | 2.39 ± 0.047
MQANKLDSQETPSTEES [SWI3] | 1.79 ± 0.096
MQEKAAHIAKNLINLSI [YCS4] | 2.15 ± 0.15
MQGKITKVLNMKPSEIL [SMC2] | 2.48 ± 0.25
MQTALRRLPEDESYARA [QCR7] | 2.78 ± 0.058

Sequence | protein stability index
MQVLNTKSETKQENETM [MED11] | 2.79 ± 0.081
MSAKAEKKPASKAPAEK [HTB1] | 3.51 ± 0.13
MSDHSLDKLNCAINSKS [RRP6] | 2.49 ± 0.057
MSESSDISAMQPVNPKP [SMX3] | 3.42 ± 0.15
MSGSLKSLDKKIAKRRQ [POP3] | 3.19 ± 0.24
MSGYDRALSIFSPDGHI [PRE6] | 2.82 ± 0.12
MSKITSSQVREHVKELL [RPL1A] | 1.59 ± 0.092
MSLRHFGHLMHYGNEHI [RPN1] | 1.47 ± 0.04
MSLVVQEQGSFQHILRL [RPS18A] | 2.95 ± 0.14
MSNKVKTKAMVPPINCI [SME1] | 2.42 ± 0.057
MSQGQSKKLDVTVEQLR [NSL1] | 2.64 ± 0.075
MSQSTASLVPEGNQGSL [MED8] | 3.16 ± 0.12
MSSTNGNAPATPSSDQN [SOH1] | 3.17 ± 0.09
MSTDSIVKASNWRLVEV [RPL14A] | 2.82 ± 0.1
MSTFIFPGDSFPVDPTT [RRP40] | 2.17 ± 0.11
MTDMQIQWYKSLLEKDI [ISW2] | 1.84 ± 0.058
MTLNRKCVVIHNGSHRT [ARP7] | 2.59 ± 0.051
MTPLLVNCLELLINTNF [PCI8] | 1.6 ± 0.037
MTPVIEKIAAGYMQKPV [PRP28] | 2.16 ± 0.11
MVDVEEKSQEVEYVDPT [RPN7] | 3.06 ± 0.22
MVLFNIYDDWLDRISSY [PRP8] | 2.26 ± 0.054
MVMAGSKGSFINIAQMS [RPO21] | 1.43 ± 0.054
MVNESDGVTHALYPQEA [RPB2] | 3.16 ± 0.087
MYPSPTGVMIGIDLAYN [PRP8] | 2.11 ± 0.074
MYTLSAQDEVFSLAFSP [ASC1] | 2.24 ± 0.062
NAAGNTPDATKIKAILE [RPP2A] | 3.13 ± 0.089

Sequence | protein stability index
NACAKYGRDDMENIKKS [ISW2] | 2.91 ± 0.11
NADLDVKDELMFSPLVD [RPO21] | 3.17 ± 0.047
NAGTEKEKESKKDSKPA [YLR335W/NUP2] | 3.31 ± 0.084
NANAGLFNKPPSTNAQN [YOR098C/NUP1] | 3.1 ± 0.046
NANTVFAGSNNQPHQSQ [YOR098C/NUP1] | 2.85 ± 0.1
NAQQTFHIDHTKPSDLT [RPO21] | 2.85 ± 0.044
NAQSKLSLTLNTHYHAD [SNF2] | 2.76 ± 0.096
NARIYNTEGSVVYEDSL [SNF2] | 3.1 ± 0.084
NAYGFIEWCSRCNDNLM [YJL039C/NUP192] | 3 ± 0.079
NDDALDLDLDLFDPDDF [MED4] | 2.88 ± 0.045
NDDSSSMNATMRNFSKQ [YDL088C/ASM4] | 2.76 ± 0.087
NDEPSHKKIKVAQPDSL [SIR2] | 2.32 ± 0.079
NDINISSIENNINNNIN [MED2] | 2.87 ± 0.044
NDLGKFIPNKQLNCVID [RPN7] | 2.49 ± 0.13
NDLHHSEKKYAEEDQVQ [RPN3] | 2.85 ± 0.1
NDLVKARDLLDDLEKTL [RPN9] | 2.97 ± 0.092
NEKLECISLGSTKLSRP [ITC1] | 2.25 ± 0.064
NENEDEDEGTLNVAEII [ARP9] | 3.37 ± 0.13
NENKVIIELPNEKFEIE [SRB4] | 2.89 ± 0.077
NENNSNGGEDTSVENEG [REC8] | 3.31 ± 0.14
NFAHSDSLSVPKVSAGD [SIR4] | 2.95 ± 0.11
NFALTTLIDLVKHSPGA [ECM29] | 1.61 ± 0.11
NFEATKKSVLKQVQDFE [COR1] | 2.76 ± 0.13
NFETEWNLQTLAADDAF [RPB11] | 2.68 ± 0.16
NFLIKLSELSPGIMLRQ [YCS4] | 2.77 ± 0.093
NFPEASKLSEHLNHYIL [YCG1] | 2.53 ± 0.29

Sequence | protein stability index
NFRILKSFTNDKIPLNY [SRB5] | 2.94 ± 0.054
NFYRPLLRSVLVLLELV [YML103C/NUP188] | 1.23 ± 0.066
NGEIKGENIDADNDGPR [SNF2] | 3.07 ± 0.074
NGFHGRLGDLGVIDDSF [SMC4] | 3.51 ± 0.17
NGGSEEEITCALDYLIP [MED7] | 3.45 ± 0.1
NGIPLKSKERSSQFVRL [YMR129W/POM152] | 2.75 ± 0.15
NGKVQYFLRRQYILQIV [YJL039C/NUP192] | 1.42 ± 0.054
NGLIISWSNGKITSPIR [RRP42] | 3.12 ± 0.19
NGNDESSEYETINISLS [NUT1] | 3.16 ± 0.12
NGTLIGCVSYSPAALKQ [YMR153W/NUP53] | 1.85 ± 0.06
NGVVKKAAAGAGSAALK [RPO31] | 3.51 ± 0.13
NHDRINISNNLQKALTV [RPN8] | 3.17 ± 0.064
NHLDELQKKFVTKQSEL [SMC1] | 2.59 ± 0.11
NIAKDLKWKKGIRGKLV [SMC1] | 1.37 ± 0.12
NIDETSDEVSRGIPRLS [SMC4] | 3.06 ± 0.2
NILWAIYNSASKASMQK [YCS4] | 1.66 ± 0.13
NINEVKKASDLVDTPSN [NUT1] | 3.14 ± 0.083
NIPKPLNSYHIKNGRIY [RGR1] | 2.28 ± 0.04
NIRSQLLSENRSEKSTT [SRP54] | 3.04 ± 0.06
NITDYETHPDNSNKQAV [BRR2] | 2.81 ± 0.047
NIVDSSAAGNKAIPTFS [YIL149C/MLP2] | 2.31 ± 0.066
NIWGTVRTNRFDIIEES [ECM29] | 2.23 ± 0.23
NIYNFSPSERIEPLEIN [BRR2] | 2.39 ± 0.064
